This note sets out measurements from patent US20250236670A1 (WISTAR INSTITUTE OF ANATOMY AND BIOLOGY, published 2025).

In assay [1] the target is T1, recombinant human Siglec-7 protein (human, UniProt Q9Y286 19-353, limits assumed).
T1 construct: Used in ELISA, Western blot and SPR
Description: SPR, titration of anti-Siglec-7 on recombinant human Siglec-7 protein (FIG. 16B). (In SPR one partner is held on a chip, and binding of the other changes the refractive index at the surface.)

Assay [2] has as its target T2, human Siglec-7 on cells (HEK293T-Siglec7 cells; human NK cells and other PBMC populations) (human, UniProt Q9Y286 19-467). The assay is described as follows: cell-based or functional assay.
The target in assay [3] is T1, recombinant human Siglec-7 protein. Description: SPR, 'Binding of DB7.2 to Siglec-7' [panel B].
In assay [4] the target is T2, human Siglec-7 on cells …. The assay is described as follows: flow cytometry on HEK293T-Siglec-7 cells, GFP against Siglec-7 staining [panel B]. The source says: For the non-conjugated primary antibodies, PE-secondary anti-human (H+L) (Invitrogen) and PE/AF647-secondary anti-human F(ab′)₂ (Jackson ImmunoResearch Laboratories Inc) were used. Live/Dead Violet viability kit (Invitrogen) was used to exclude dead cells from analysis. For Fluorescence cytometry staining on PBMCs, the following antibodies were used: CD69 PE-Cy5 (clone FN50), PD-1 BV421 (clone EH12.2H7), CCR7 APC-Cy7 (G043H7), CD19 BV785 (clone HIB19), CD27 BV650 (clone 0323), CD56 BV570 (clone HCD56), CD16 BV711 (clone 3G8), CD21 PE-Cy7 (clone BU32) and Siglec-7 (clone 6-434) from Biolegend; CD11c BUV395 (clone B-ly6), CXCR5 BV750 (clone RF8B2), CD3 BUV805 (UCHT1), CD45 AF700 (clone HI30), CD127 PE-CF594 (clone HIL-7RM21), CD25 BUV737 (clone 2A3), CD8 BUV496 (clone RPA-T8), HLA-DR BV605 (clone G46-6), CD38 BUV661 (clone HIT2), CD14 BV480 (clone MP9), CD45RA BUV563 (HI100), CD4 BB790 (clone SK3), CD15 FITC (clone HI98), CD103 BB700 (clone Ber-ACT8), CD161 APC (clone DX12) from BD Biosciences. […] Cells were washed with PBS and incubated with 0, 1 or 10 ug/ml of DB7.2 Siglec-7 antibody diluted in fluorescence-activated cell sorting (FACS) buffer for 20 minutes. […]
For orientation: In flow cytometry, cells or beads pass a laser one at a time.

Assay [5] deals with T1, recombinant human Siglec-7 protein. The assay is described as follows: ELISA on recombinant human Siglec-7, dilution series (axis 'Dilutions', no concentration unit) [panel A]. On the technique in general: An ELISA detects its analyte on a solid surface through an enzyme-linked reagent.

Usually Kd stands for the free concentration of one partner at which half of the binding sites on the other are occupied at equilibrium, for simple one-to-one binding. As usually defined, the koff is the rate constant with which the complex falls apart. In general, kon refers to the second-order rate constant of association.

T2 sequence (Q9Y286 19-467): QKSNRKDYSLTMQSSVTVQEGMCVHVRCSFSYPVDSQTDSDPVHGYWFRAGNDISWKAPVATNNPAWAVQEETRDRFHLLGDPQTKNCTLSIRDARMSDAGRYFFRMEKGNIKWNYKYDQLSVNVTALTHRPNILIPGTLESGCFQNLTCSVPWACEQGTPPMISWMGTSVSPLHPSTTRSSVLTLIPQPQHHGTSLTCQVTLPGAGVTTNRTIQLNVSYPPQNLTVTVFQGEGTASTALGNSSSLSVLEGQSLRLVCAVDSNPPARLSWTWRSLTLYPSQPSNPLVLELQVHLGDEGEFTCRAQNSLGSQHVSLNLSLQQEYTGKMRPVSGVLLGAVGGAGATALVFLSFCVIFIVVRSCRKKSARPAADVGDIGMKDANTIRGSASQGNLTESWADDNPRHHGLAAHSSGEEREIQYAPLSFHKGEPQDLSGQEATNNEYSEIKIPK
T1 sequence (Q9Y286 19-353 limits assumed): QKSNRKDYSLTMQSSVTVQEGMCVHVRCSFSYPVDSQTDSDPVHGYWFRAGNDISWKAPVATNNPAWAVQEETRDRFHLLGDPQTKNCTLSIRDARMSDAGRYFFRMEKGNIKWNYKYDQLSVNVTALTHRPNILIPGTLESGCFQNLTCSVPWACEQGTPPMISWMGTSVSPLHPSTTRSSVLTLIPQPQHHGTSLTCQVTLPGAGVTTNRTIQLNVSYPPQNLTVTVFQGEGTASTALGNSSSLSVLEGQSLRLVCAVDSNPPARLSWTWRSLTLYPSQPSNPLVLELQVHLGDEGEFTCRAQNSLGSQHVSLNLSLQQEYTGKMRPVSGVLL

B1: DB7.2 (DB-S7-2) Siglec-7 MAb (antibody, human IgG1, V domains shown)
VH: QVQLVESGGGVVQPGRSLRLSCAASGFTFRTDAMHWVRQAPGKGLEWVAVIWYDGSIKYHADSVKGRFTISRDNSKNTLYLEMNSLRAEDTAVYYCARDRSNSLDHWGQGILVSVSS
VL: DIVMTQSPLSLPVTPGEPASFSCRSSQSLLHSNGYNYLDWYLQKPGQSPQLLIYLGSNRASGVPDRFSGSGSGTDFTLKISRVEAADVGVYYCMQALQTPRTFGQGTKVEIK
notes: Expressed as human IgG1; The VH is the same as that of DB-S7-1 and DB-S7-7; also called DB7.2 Siglec-7 DMAb; DB7.2 anti-Siglec-7 antibody
For the molecule B1, in assay [1], the Kd stood at 0.044 nM. Besides, in assay [2], the “EC50, killing of PEO4 cells in the presence of human PBMCs (xCELLigence)” value is 68.9 nM and the “IC50, killing of OVISE cells in the presence of human PBMCs (xCELLigence, cell index vs dose at 72 h)” value stood at 82.7 nM. In assay [3], the koff is 3.6e-05 s⁻¹, the kon is 830000 M⁻¹ s⁻¹ and the t1/2 was 320 min.

B2: DB7.1 (DB-S7-1) Siglec-7 MAb (antibody, human IgG1, V domains shown)
VH: B1 VH
VL: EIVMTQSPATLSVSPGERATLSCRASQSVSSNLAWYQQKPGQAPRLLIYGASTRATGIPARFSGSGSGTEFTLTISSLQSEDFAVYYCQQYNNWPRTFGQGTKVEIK
notes: Expressed as human IgG1 (HC + LC plasmids in pVax1, Expi293F cells)
In the case of B2, the binding result in assay [4] and in assay [5] was “binds” in each case.

B3: DB7.2_TM Mod (antibody, human IgG1, V domains shown)
VH: B1 VH
VL: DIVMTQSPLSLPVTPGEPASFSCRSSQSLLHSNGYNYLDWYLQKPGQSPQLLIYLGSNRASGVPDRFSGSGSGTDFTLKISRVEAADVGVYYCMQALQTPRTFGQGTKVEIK
Take B3: the “IC50, killing of OVISE cells in the presence of human PBMCs (xCELLigence, cell index vs dose at 72 h)” value in assay [2] was found to be 192 nM.

B4: DB7.7 (DB-S7-7) Siglec-7 MAb (antibody, human IgG1, V domains shown)
VH: B1 VH
VL: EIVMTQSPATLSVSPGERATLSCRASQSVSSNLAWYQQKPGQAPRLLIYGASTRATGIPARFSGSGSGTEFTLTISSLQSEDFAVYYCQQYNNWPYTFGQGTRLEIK
notes: Expressed as human IgG1
Regarding B4, the binding result in assay [4] and in assay [5] was “binds” in each case.
